Test system: MS2 coat protein
Assay: apparent KD of MS2 coat protein; designed switch direction (-1 OFF switch, 1 ON switch): 1; higher = weaker reporter binding
Procedure, shortened: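 Apparent KD, taken as the median over clusters for each design, was obtained by curve-fitting normalised cluster fluorescence. Designed RNA switches had been transcribed on Illumina chips by stalled E. coli RNA polymerase and titrated with SNAP-549-labelled MS2 coat protein, doubling from 0.7 or 1.5 nM to 3 µM.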

[1] = Eterna round: R95, input ligand: FMN 200 uM
[2] = Eterna round: R95, input ligand: microRNA oligo, concentration not stated
[3] = Eterna round: R95, input ligand: none
[4] = input ligand: microRNA oligo, concentration not stated

## GGCUAUCGCGUUCGAUAGCUUAAGCAUGUACAUGAGGAUCACCCAUGUCAUGUACAAGCUUUUUGCUCGUAUCUUAU (puzzle: Sensor for hsa-mir-208a)
[1]
  apparent KD of MS2 coat protein: 94.6 nM
[2]
  apparent KD of MS2 coat protein: 12.1 nM
[3]
  apparent KD of MS2 coat protein: 119 nM

## GAGCCAGUCCGAGGAUAUUCGUAGUACCACAUGAGGAUCACCCAUGUGGGCUCAGAAGAGCCCUUGGAGAAGGCGGGCUGGCUC [SS-NG2-LRO20] (Eterna round: R96, puzzle: Same State NG 2)
Input ligand: FMN 200 uM
  apparent KD of MS2 coat protein: 9.67 nM
[4]
  apparent KD of MS2 coat protein: 5.99 nM
Input ligand: none
  apparent KD of MS2 coat protein: 12.4 nM

## UUUAGAUCGCGAGGAUAUCGCGAGGAUCACCCGUGAGAAGGCGCAGAGCCGAGGAUCACCCGGCUGAUCCUGAGAAGGAGGUCU (Eterna round: R96, puzzle: Same State NG 1)
Input ligand: FMN 200 uM
  apparent KD of MS2 coat protein: 45.1 nM
[4]
  apparent KD of MS2 coat protein: 87.7 nM
Input ligand: none
  apparent KD of MS2 coat protein: 129 nM

## GUACAUAUUAUAGGAUAUCACGUCGAAUAGACGUGAGAAGGAUAAUCCCACAUGAAUAUUAAUACAUGAGGAUCACCCAUGUAC [SSNG1/18-A1] (Eterna round: R96, puzzle: Same State NG 1)
Input ligand: FMN 200 uM
  apparent KD of MS2 coat protein: 42 nM
[4]
  apparent KD of MS2 coat protein: 49.7 nM
Input ligand: none
  apparent KD of MS2 coat protein: 49.2 nM

## UCUUGGUUUUUGCUCGUUUUUUGUGUUGAACAUGAGGAUCACCCAUGUAUUGUACGGUCCGGUUUAGUAAUGGUCCG [JMF 11] (puzzle: Sensor for hsa-mir-208a)
[1]
  apparent KD of MS2 coat protein: 24.8 nM
[2]
  apparent KD of MS2 coat protein: 15.1 nM
[3]
  apparent KD of MS2 coat protein: 25 nM

## AUUAUUUAUGCAGGAUAUGAUUAACAUGAGGAUCACCCAUGUGGUGUUGUGAGUAAGGAGAGUGAUCAGAAGGGCAUUUUUUGU [JMF's solution 54] (Eterna round: R96, puzzle: Same State NG 2)
Input ligand: FMN 200 uM
  apparent KD of MS2 coat protein: 713 nM
[4]
  apparent KD of MS2 coat protein: 531 nM
Input ligand: none
  apparent KD of MS2 coat protein: 464 nM

## CUGACAUGUCAAGGAUAUCACGUCGAUUAGACGUGAGAAGGUGAUCUACACAUGAGGAUCACCCAUGUGUUACGUGGGAGUCAG [Brourd's SSNG1/1-A2 mod 19] (Eterna round: R96, puzzle: Same State NG 1)
Input ligand: FMN 200 uM
  apparent KD of MS2 coat protein: 54.9 nM
[4]
  apparent KD of MS2 coat protein: 113 nM
Input ligand: none
  apparent KD of MS2 coat protein: 162 nM

## AUUGCUAGCGCAGGAUAUGAUGCGAAAAUUGCGUCAGAAGGGUGUACUCUCUCAUUGCGGGAGGACAUGAGGAUCACCCAUGUC [SameState NG1 #83] (Eterna round: R96, puzzle: Same State NG 1)
Input ligand: FMN 200 uM
  apparent KD of MS2 coat protein: 66.6 nM
[4]
  apparent KD of MS2 coat protein: 71.5 nM
Input ligand: none
  apparent KD of MS2 coat protein: 83.3 nM

## GGACGUCAUCUCAAUGAUUAAACAUGAGGAUCACCCAUGUCACAGGAUAUGGAUCCUAAUUGGAUCCAGAAGGGUGUGACGUCC [Fiskers NG3ss - 44] (Eterna round: R96, puzzle: Same State NG 3)
Input ligand: FMN 200 uM
  apparent KD of MS2 coat protein: 121 nM
[4]
  apparent KD of MS2 coat protein: 98.2 nM
Input ligand: none
  apparent KD of MS2 coat protein: 148 nM

## AUCAAAAGAGGAGGAUAUGCAGAGGAUCACCCUGUAGAAGGCCACAGAGGAGGAUAUGCAGAGGAUCACCCUGUAGAAGGCCUC [pwkr ssNG DX.16] (Eterna round: R96, puzzle: Same State NG 1)
Input ligand: FMN 200 uM
  apparent KD of MS2 coat protein: 37.3 nM
[4]
  apparent KD of MS2 coat protein: 156 nM
Input ligand: none
  apparent KD of MS2 coat protein: 189 nM

## GAUUAACAUGAGGAUCACCCAUGUCGUUAAAUGGGAGGAUAUACGUGGACCGUAGUCCGCGUAGAAGGCCUAAUUG [Mat - Same State 1 - Mod of JL - D22] (puzzle: Same State 1)
[2]
  apparent KD of MS2 coat protein: 101 nM

## GCCGCGUUUCGCGCCUACAUGAGGAUCACCCAUGUUUGUGGGCAGGAUAUCGUCCGCUCUGCGGGCGAGAAGGGCUGUUGUGGU [salish99_SSNG3_R04_026] (Eterna round: R96, puzzle: Same State NG 3)
[4]
  apparent KD of MS2 coat protein: 40.9 nM

## GCAGUACUAGCAGAGGAUAUGUCGGUAACGACAUGAGGAUCACCCAUGUGUACGAAAGUGCUCAGACAGAAGGCUGAGUACUGCU [Same State 2 - Hyphema v.1] (puzzle: Same State 2)
[1]
  apparent KD of MS2 coat protein: 17.8 nM
[2]
  apparent KD of MS2 coat protein: 58.4 nM
[3]
  apparent KD of MS2 coat protein: 78.4 nM

## GUAGGACAUGAGGAUCACCCAUGUGGAGAGGAACGAGGAUAUGUGAGAGGAGUGCAGAGGACAGAAGGCGUGGAGG [JR_SS1_Sub027] (puzzle: Same State 1)
[1]
  apparent KD of MS2 coat protein: 42.6 nM
[2]
  apparent KD of MS2 coat protein: 31.1 nM
[3]
  apparent KD of MS2 coat protein: 62.1 nM

## ACAUGAGAGUUAGGAUAUCUUGUACCUACAUGUGACAUGAGGAUCACCCAUGUGGUAAGUAUGACAGAGAAGGAACAGAUAUGU [Equivalance 69 - Jieux - Same State NG 2] (Eterna round: R96, puzzle: Same State NG 2)
Input ligand: FMN 200 uM
  apparent KD of MS2 coat protein: 36.2 nM
[4]
  apparent KD of MS2 coat protein: 50.2 nM
Input ligand: none
  apparent KD of MS2 coat protein: 91.1 nM

## UGGCUCAGAGCAGGAUAUAUGCGAUCACAUGAGGAUCACCCAUGUCUCGAGCUUCGGCUCGAGGCAUAGAAGGGCUCUGAGCCU [SSNG2/4-B3] (Eterna round: R96, puzzle: Same State NG 2)
Input ligand: FMN 200 uM
  apparent KD of MS2 coat protein: 14.9 nM
[4]
  apparent KD of MS2 coat protein: 32.6 nM
Input ligand: none
  apparent KD of MS2 coat protein: 45.5 nM

## GCGAGUGCCACAGGAUAUUCGGCUGUUUCGCUCGAAGAAGGGUGCCGCAUGCAAUAAAGAAAACAUGAGGAUCACCCAUGUGAA [Uszavege] (Eterna round: R96, puzzle: Same State NG 1)
Input ligand: FMN 200 uM
  apparent KD of MS2 coat protein: 527 nM
[4]
  apparent KD of MS2 coat protein: 217 nM
Input ligand: none
  apparent KD of MS2 coat protein: 418 nM

## AUUAAUAAUCUAGGAUAUCACGUCGAUUAGACGUGAGAAGGAGAUCAUAACAUGAGGAUCACCCAUGUAUUACAUGAAGUUAAU [SSNG1/7-B2] (Eterna round: R96, puzzle: Same State NG 1)
Input ligand: FMN 200 uM
  apparent KD of MS2 coat protein: 27.5 nM
[4]
  apparent KD of MS2 coat protein: 28.8 nM
Input ligand: none
  apparent KD of MS2 coat protein: 38.1 nM

## GGUCGGACAUGAGGAUCACCCAUGUGGUGAGCGGAAACGCCAUAGGAUAUCUGUCCGAAAAGGUCAGAGAAGGGUGAACCGACC [Fiskers NG3ss - 68] (Eterna round: R96, puzzle: Same State NG 3)
Input ligand: FMN 200 uM
  apparent KD of MS2 coat protein: 184 nM
[4]
  apparent KD of MS2 coat protein: 311 nM
Input ligand: none
  apparent KD of MS2 coat protein: 135 nM

## GAGAGAGGGUGAGGAUAUUUAGUGAUAAUGAUAAAAGAAGGCACAGACAUGAGGAUCACCCAUGUGGGAAUAAUCCAGAGAGAG [Parity 4 - Jieux - Same State NG 1] (Eterna round: R96, puzzle: Same State NG 1)
[4]
  apparent KD of MS2 coat protein: 238 nM

## AGUCCAGCCUGAGCUGGACAAAAGCGUGUACAUGAGGAUCACCCAUGUCAUGUACAAGCUUUUUGCUCGUCUUAAUA [Zipper 49 - 6] (puzzle: Sensor for hsa-mir-208a)
[1]
  apparent KD of MS2 coat protein: 106 nM
[2]
  apparent KD of MS2 coat protein: 21.2 nM
[3]
  apparent KD of MS2 coat protein: 83.1 nM

## GAAUAGUUGAGAGGAUAUCUAUGAUAAAAGGAUAGAGAAGGUUUUAACAUGAGGAUCACCCAUGUAGGACUAUAUAUGUGAAUA [Parity 82 - Jieux - Same State NG 1] (Eterna round: R96, puzzle: Same State NG 1)
Input ligand: FMN 200 uM
  apparent KD of MS2 coat protein: 12.5 nM
[4]
  apparent KD of MS2 coat protein: 11.9 nM
Input ligand: none
  apparent KD of MS2 coat protein: 16.9 nM

## GUCAGGCAAGCUUUUUUCUCGUAGUGUAAACAUGAGGAUCACCCAUGUGCUCGCCCUGGAUCUUUGGAUCCCAGAAA [Anedraus] (puzzle: Sensor for hsa-mir-208a)
[1]
  apparent KD of MS2 coat protein: 40.2 nM
[2]
  apparent KD of MS2 coat protein: 21 nM
[3]
  apparent KD of MS2 coat protein: 41.9 nM

## CGGGAGAUCGUAGGAUAUCUAGGAUAUGAACGAGGAUCACCCGAGCAGCAUCAGCGCAUCAGAGGAGAGAAGGACGAUCAUGCG [pwkr ssNG2 2F5 2FMN.6] (Eterna round: R96, puzzle: Same State NG 2)
Input ligand: FMN 200 uM
  apparent KD of MS2 coat protein: 751 nM
[4]
  apparent KD of MS2 coat protein: 31.7 nM
Input ligand: none
  apparent KD of MS2 coat protein: 741 nM

## GGUAGGUUACUACCAAACAUGAGGAUCACCCAUGUAAAUGGGAAGGAUAUGGUACCUAUUUGGUACCAGAAGGUCUAAUUAAUU [JL Fiskers NG3ss - 2 mod 1] (Eterna round: R96, puzzle: Same State NG 3)
Input ligand: FMN 200 uM
  apparent KD of MS2 coat protein: 332 nM
[4]
  apparent KD of MS2 coat protein: 479 nM
Input ligand: none
  apparent KD of MS2 coat protein: 553 nM

## AAGUAACAUGAGGAUCACCCAUGUGAGGUGAGCGUAGGAUAUCGAGAAGGAAGGGUGGAGCGAGAAGGACGAGGGA [JR_SS1_Sub0101] (puzzle: Same State 1)
[1]
  apparent KD of MS2 coat protein: 565 nM
[2]
  apparent KD of MS2 coat protein: 463 nM
[3]
  apparent KD of MS2 coat protein: 389 nM

## UUUUUUUUGACGAGACAAGCUUUUUGAUCACAUGAGGAUCACCCAUGUCUCGUCUUAUUUUUUUUUUUUUUUUUUUU [BA Sensor hsa-mir-208a - 2 - 2] (puzzle: Sensor for hsa-mir-208a)
[1]
  apparent KD of MS2 coat protein: 17.4 nM
[2]
  apparent KD of MS2 coat protein: 9.64 nM
[3]
  apparent KD of MS2 coat protein: 7.54 nM

## GCCGGCUGGUGAGGAUAUGGCACCUUAUUGGUGCCAGAAGGCAUGUCAAUUGACAUGAGGAUCACCCAUGUGUUGUCGUUGGCG [salish99_SSNG1_r04_609] (Eterna round: R96, puzzle: Same State NG 1)
Input ligand: FMN 200 uM
  apparent KD of MS2 coat protein: 698 nM
[4]
  apparent KD of MS2 coat protein: 72.4 nM
Input ligand: none
  apparent KD of MS2 coat protein: 742 nM

## AUAAAUAACACAGGAUAUCCGCACGGGUAGUGCGGAGAAGGGUGAACGUCGGCUCUCGCCAACAUGAGGAUCACCCAUGUAAAG [Letiusle] (Eterna round: R96, puzzle: Same State NG 1)
Input ligand: FMN 200 uM
  apparent KD of MS2 coat protein: 512 nM
[4]
  apparent KD of MS2 coat protein: 27.7 nM
Input ligand: none
  apparent KD of MS2 coat protein: 41.1 nM

## UAGUGCAUUAGAGGAUAUUCUUACGACACGAGUAAGACAUGAGGAUCACCCAUGUUGUGGCAUGGGAAGAAGGCUGAUGUGCUA [Omei SS(NG)2 Bv9] (Eterna round: R96, puzzle: Same State NG 2)
[4]
  apparent KD of MS2 coat protein: 45.3 nM

## CACGUCCAGGUAGGAUAUGAGGUGCCAUAGGGAACAGCCUAUGGACAUGAGGAUCACCCAUGUCCUCAGAAGGGCCAGACGUGA [Rasote] (Eterna round: R96, puzzle: Same State NG 2)
Input ligand: FMN 200 uM
  apparent KD of MS2 coat protein: 25.7 nM
[4]
  apparent KD of MS2 coat protein: 116 nM
Input ligand: none
  apparent KD of MS2 coat protein: 171 nM

Source: the supplement of paper PMC9170038
